Assay results: the supplement of paper PMC7877785
± gives the uncertainty stated by the source.

Assay: self-splicing fitness, log relative to wild type (ln ratio); higher = more splicing; Tetrahymena group I intron in knt gene, E. coli kanamycin selection, DiMSum; sequences stand for … in CUCUCU…GGAGGGAAAAGUUAUCAGGCAUGCACCUGGUAGCUAGUCUUUAAACCAAUAGAUUGCAUCGGUUUAAAAGGCAAGACCGUCAAAUUGCGGGAAAGGGGUCAACAGCCGUUCAGUACCAAGUCUCAGGGGAAACUUUGAGAUGGCCUUGCAAAGGGUAUGGUAAUAAGCUGACGGACAUGGUCCUAACCACGCAGCCAAGUCCUAAGUCAACAGAUCUUCUGUUGAUAUGGAUGCAGUUCACAGACUAAAUGUCGGUCGGGGAAGAUGUAUUCUUCUCAUAAGAUAUAGUCGGACCUCUCCUUAAUGGGAGCUAGCGGAUGAAGUGAUGCAACACUGGAGCCGCUGGGAACUAAUUUGUAUGCGAAAGUAUAUUGAUUAGUUUUGGAGUACUCGUGGUCG
Procedure, shortened: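 The eight P1ex-region nucleotides of an intron in the knt kanamycin-resistance gene on pET-22b(+) were all randomised and the library put into E. coli BL21(DE3). Six replicate transformations were grown overnight at 37°C or 30°C on LB agar with or without 25 μg/mL kanamycin, together with 100 μg/mL carbenicillin, 50 μM IPTG and 0.2% rhamnose. Colonies were pooled and amplicon-sequenced on an Illumina HiSeq 2500. Fitness from DiMSum is the error-weighted combination of wild-type-normalised replicate fold changes, kanamycin over none.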

| Sequence | self-splicing fitness (ln) (30 °C) | self-splicing fitness (ln) (37 °C) |
| --- | --- | --- |
| UACCAGCAAUAUUACGAACA | -0.482 ± 0.096 | -0.258 ± 0.12 |
| UACCAGCAAUAUUACGAACG | -0.468 ± 0.063 | -0.562 ± 0.07 |
| UACCAGCAAUAUUACGAACU | -2.26 ± 0.1 | -0.819 ± 0.11 |
| UACCAGCAAUAUUACGAAUA | -0.776 ± 0.086 | 0.199 ± 0.093 |
| UACCAGCAAUAUUACGACCA | -0.314 ± 0.081 | 0.106 ± 0.1 |
| UACCAGCAAUAUUACGACCG | -0.151 ± 0.067 | 0.099 ± 0.095 |
| UACCAGCAAUAUUACGACCU | -2.1 ± 0.17 | -1.57 ± 0.17 |
| UACCAGCAAUAUUACGACGU | -2.11 ± 0.082 | -0.692 ± 0.089 |
| UACCAGCAAUAUUACGAGCC | -4.51 ± 0.33 | -2.07 ± 0.32 |
| UACCAGCAAUAUUACGAGCU | -3.29 ± 0.21 | -2.7 ± 0.24 |
| UACCAGCAAUAUUACGCAAC | -2.85 ± 0.3 | -2.19 ± 0.27 |
| UACCAGCAAUAUUACGCAGG | -3.68 ± 0.21 | -2.37 ± 0.27 |
| UACCAGCAAUAUUACGCCCC | -2.68 ± 0.5 | -0.87 ± 0.4 |
| UACCAGCAAUAUUACGCCGC | -2.89 ± 0.38 | -2.37 ± 0.35 |
| UACCAGCAAUAUUACGCCUA | 0.00559 ± 0.047 | 0.659 ± 0.065 |
| UACCAGCAAUAUUACGCGCA | 0.0526 ± 0.065 | -0.42 ± 0.08 |
| UACCAGCAAUAUUACGCGUU | -1.64 ± 0.07 | -0.917 ± 0.086 |
| UACCAGCAAUAUUACGGAUA | -1.12 ± 0.077 | -0.394 ± 0.078 |
| UACCAGCAAUAUUACGGAUU | -0.984 ± 0.071 | -0.93 ± 0.077 |
| UACCAGCAAUAUUACGGCGG | -1.07 ± 0.058 | -0.549 ± 0.081 |
| UACCAGCAAUAUUACGGCUA | 0.185 ± 0.066 | 0.554 ± 0.089 |
| UACCAGCAAUAUUACGGUUA | -0.306 ± 0.063 | 0.23 ± 0.076 |
| UACCAGCAAUAUUACGUGCG | -0.811 ± 0.044 | -0.367 ± 0.061 |
| UACCAGCAAUAUUACGUUAU | -2.97 ± 0.12 | -2.26 ± 0.14 |

| Sequence | self-splicing fitness (ln) (30 °C) | self-splicing fitness (ln) (37 °C) |
| --- | --- | --- |
| UACGAGCAAUAUUACGAGAG | -3.93 ± 0.28 | -2.8 ± 0.22 |
| UACGAGCAAUAUUACGAUAC | -3.5 ± 0.19 | -1.61 ± 0.13 |
| UACGAGCAAUAUUACGCCCU | -3.96 ± 0.47 |  |
| UACGAGCAAUAUUACGCCUG | -1.65 ± 0.1 | -0.887 ± 0.14 |
| UACGAGCAAUAUUACGCUUA | -1.96 ± 0.25 | -0.594 ± 0.22 |
| UACGAGCAAUAUUACGGAAA |  | -1.29 ± 0.32 |
| UACGAGCAAUAUUACGGAUC | -3.56 ± 0.4 | -2.63 ± 0.37 |
| UACGAGCAAUAUUACGGCUU | -3.48 ± 0.21 | -1.84 ± 0.16 |
| UACGAGCAAUAUUACGGGCG | -0.999 ± 0.12 | -0.902 ± 0.14 |
| UACGAGCAAUAUUACGGGUG | -1.88 ± 0.074 | -0.725 ± 0.087 |
| UACGAGCAAUAUUACGGUGC | -3.46 ± 0.4 | -2.43 ± 0.48 |
| UACGAGCAAUAUUACGGUUU | -3.06 ± 0.17 | -2.32 ± 0.18 |
| UACGAGCAAUAUUACGUCAG | -3.08 ± 0.34 | -3.01 ± 0.36 |
| UACGAGCAAUAUUACGUCGA | -2.65 ± 0.42 | -1.45 ± 0.25 |
| UACGAGCAAUAUUACGUGAA | -3.05 ± 0.2 |  |
| UACGAGCAAUAUUACGUGGA | -3.55 ± 0.23 | -1.98 ± 0.19 |
| UACUAGCAAUAUUACGAAGC | -2.06 ± 0.38 | -3.04 ± 0.43 |
| UACUAGCAAUAUUACGACGC | -2.01 ± 0.25 | 0.0923 ± 0.18 |
| UACUAGCAAUAUUACGACGG | -0.517 ± 0.12 | -0.301 ± 0.15 |
| UACUAGCAAUAUUACGACGU | -2.22 ± 0.1 | -1.29 ± 0.12 |
| UACUAGCAAUAUUACGCACG | -0.877 ± 0.089 | -0.992 ± 0.11 |
| UACUAGCAAUAUUACGCCUA | -0.895 ± 0.14 | 0.591 ± 0.13 |
| UACUAGCAAUAUUACGCUCC | -2.42 ± 0.23 | -1.21 ± 0.23 |
| UACUAGCAAUAUUACGGAAA | -2.64 ± 0.22 | -1.27 ± 0.18 |

| Sequence | self-splicing fitness (ln) (30 °C) | self-splicing fitness (ln) (37 °C) |
| --- | --- | --- |
| UACUAGCAAUAUUACGGAGA | -2.59 ± 0.17 | -1.84 ± 0.16 |
| UACUAGCAAUAUUACGGAUA | -1.72 ± 0.096 | -0.886 ± 0.092 |
| UACUAGCAAUAUUACGGCUG | -0.825 ± 0.14 | -0.545 ± 0.19 |
| UACUAGCAAUAUUACGGGGA | -1.37 ± 0.14 | -0.992 ± 0.12 |
| UACUAGCAAUAUUACGGUCG | -0.0757 ± 0.12 | 0.338 ± 0.16 |
| UACUAGCAAUAUUACGUAUG | -3.59 ± 0.26 | -1.8 ± 0.23 |
| UACUAGCAAUAUUACGUGAG | -3.38 ± 0.13 | -2.56 ± 0.23 |
| UAGAAGCAAUAUUACGAAUA | -1.14 ± 0.12 | -0.376 ± 0.12 |
| UAGAAGCAAUAUUACGAAUC | -3.48 ± 0.4 | -2.65 ± 0.36 |
| UAGAAGCAAUAUUACGAAUG | -0.651 ± 0.071 | -0.298 ± 0.09 |
| UAGAAGCAAUAUUACGACAA | -0.512 ± 0.1 | -0.213 ± 0.11 |
| UAGAAGCAAUAUUACGACCG | -0.345 ± 0.18 | -0.138 ± 0.25 |
| UAGAAGCAAUAUUACGAGAG | -3.63 ± 0.28 | -1.46 ± 0.34 |
| UAGAAGCAAUAUUACGAGCU | -3.2 ± 0.25 | -1.18 ± 0.2 |
| UAGAAGCAAUAUUACGAGGC |  | -2.21 ± 0.42 |
| UAGAAGCAAUAUUACGAGUG | -0.527 ± 0.048 | -0.505 ± 0.071 |
| UAGAAGCAAUAUUACGAUCA | -0.731 ± 0.064 | 0.138 ± 0.086 |
| UAGAAGCAAUAUUACGCAAC | -1.44 ± 0.18 | -2.33 ± 0.42 |
| UAGAAGCAAUAUUACGCACC | -2.13 ± 0.27 | -1.44 ± 0.25 |
| UAGAAGCAAUAUUACGCGAA | -1.61 ± 0.18 | -0.748 ± 0.17 |
| UAGAAGCAAUAUUACGCUCA | 0.205 ± 0.16 | -0.337 ± 0.18 |
| UAGAAGCAAUAUUACGGAUC | -2.24 ± 0.12 | -1.49 ± 0.17 |
| UAGAAGCAAUAUUACGGCAG | -0.136 ± 0.12 | 0.24 ± 0.16 |
| UAGAAGCAAUAUUACGGCGC | -1.94 ± 0.19 | -0.275 ± 0.3 |

| Sequence | self-splicing fitness (ln) (30 °C) | self-splicing fitness (ln) (37 °C) |
| --- | --- | --- |
| UAGAAGCAAUAUUACGGCGU | -0.78 ± 0.077 | -0.678 ± 0.11 |
| UAGAAGCAAUAUUACGGGCA | -1.17 ± 0.16 | -0.144 ± 0.12 |
| UAGAAGCAAUAUUACGUCGG | -0.813 ± 0.073 | -0.306 ± 0.091 |
| UAGAAGCAAUAUUACGUGCA | -0.492 ± 0.087 | -0.0303 ± 0.093 |
| UAGAAGCAAUAUUACGUGUC | -3.27 ± 0.22 | -2.31 ± 0.23 |
| UAGAAGCAAUAUUACGUUAA | -3.14 ± 0.16 | -1.39 ± 0.15 |
| UAGCAGCAAUAUUACGACGA | -0.341 ± 0.07 | 0.256 ± 0.079 |
| UAGCAGCAAUAUUACGAGAG | -2.8 ± 0.2 | -3.15 ± 0.29 |
| UAGCAGCAAUAUUACGAGGU | -3.43 ± 0.15 | -1.7 ± 0.13 |
| UAGCAGCAAUAUUACGAUAC | -4.05 ± 0.4 | -2.2 ± 0.33 |
| UAGCAGCAAUAUUACGCGGA | -0.908 ± 0.079 | -0.843 ± 0.082 |
| UAGCAGCAAUAUUACGCUGC | -2.86 ± 0.35 | -2.2 ± 0.32 |
| UAGCAGCAAUAUUACGCUGU | -3.59 ± 0.25 | -3.42 ± 0.35 |
| UAGCAGCAAUAUUACGGAGA | -3.24 ± 0.33 | -2.18 ± 0.14 |
| UAGCAGCAAUAUUACGGGGA | -2.85 ± 0.2 | -1.73 ± 0.12 |
| UAGCAGCAAUAUUACGGUGA | -0.912 ± 0.08 | -0.0764 ± 0.096 |
| UAGCAGCAAUAUUACGUCCU | -1.1 ± 0.068 | -0.435 ± 0.087 |
| UAGCAGCAAUAUUACGUCGC | -4.47 ± 0.24 | -2.73 ± 0.22 |
| UAGCAGCAAUAUUACGUCUC | -1.96 ± 0.17 | -0.915 ± 0.15 |
| UAGCAGCAAUAUUACGUGCG | -0.801 ± 0.076 | 0.26 ± 0.081 |
| UAGCAGCAAUAUUACGUGGU | -3.87 ± 0.2 | -2.79 ± 0.16 |
| UAGGAGCAAUAUUACGAAUC |  | -2.02 ± 0.26 |
| UAGGAGCAAUAUUACGACUU | -0.556 ± 0.14 | 0.485 ± 0.19 |
| UAGGAGCAAUAUUACGAGCC | -3.1 ± 0.3 | -2.82 ± 0.47 |
